Source: the supplement of paper PMC10065799, “High-throughput profiling of sequence recognition by tyrosine kinases and SH2 domains using bacterial peptide display” (eLife, 2023)
One block for each sequence: values may come before it.

Columns and labels:
[1] = target: SHP2-C SH2; test: SH2 binding enrichment of the phosphorylated peptide, bacterial display (enrichment ratio); higher = better substrate or ligand; peptides without Tyr show the background
[2] = target: c-Src SH2; test: as above
[3] = target: Grb2 SH2 (UniProt P62993); test: as above
[4] = target: FGFR3 (UniProt P22607); test: phosphorylation enrichment, bacterial display (enrichment ratio); higher = better substrate or ligand; peptides without Tyr show the background
[5] = test system: AncSZ; test: as above
[6] = target: Fes (UniProt P07332); test: as above
[7] = target: Jak2 (UniProt O60674); test: as above
[8] = target: Fyn (UniProt P06241); test: as above
[9] = target: EPHB2 (UniProt P29323); test: as above
[10] = test system: c-Abl (mouse); test: as above
[11] = test system: Fer (mouse); test: as above
[12] = target: FGFR1 (UniProt P11362); test: as above
[13] = target: EPHB1 (UniProt P54762); test: as above
[14] = test system: c-Src; test: as above
[15] = target: Hck (UniProt P08631); test: as above
[16] = target: MERTK (UniProt Q12866); test: as above
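For SH2 binding enrichment of the phosphorylated peptide, bacterial display in this document: peptide library displayed on the E. coli surface as eCPX fusions, selected cells deep-sequenced, score is each peptide's frequency after selection divided by its frequency in the input.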
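For phosphorylation enrichment, bacterial display in this document: 11-residue human phosphosite peptides and single-mutation variants displayed on the E. coli surface, counted by deep sequencing, each peptide's frequency after selection divided by its frequency in the unselected input library; frequency after pTyr selection over input frequency; kinase dosed for 20-30% of maximal phosphorylation in three min.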

Sequence of Hck (P08631 whole entry, looked up): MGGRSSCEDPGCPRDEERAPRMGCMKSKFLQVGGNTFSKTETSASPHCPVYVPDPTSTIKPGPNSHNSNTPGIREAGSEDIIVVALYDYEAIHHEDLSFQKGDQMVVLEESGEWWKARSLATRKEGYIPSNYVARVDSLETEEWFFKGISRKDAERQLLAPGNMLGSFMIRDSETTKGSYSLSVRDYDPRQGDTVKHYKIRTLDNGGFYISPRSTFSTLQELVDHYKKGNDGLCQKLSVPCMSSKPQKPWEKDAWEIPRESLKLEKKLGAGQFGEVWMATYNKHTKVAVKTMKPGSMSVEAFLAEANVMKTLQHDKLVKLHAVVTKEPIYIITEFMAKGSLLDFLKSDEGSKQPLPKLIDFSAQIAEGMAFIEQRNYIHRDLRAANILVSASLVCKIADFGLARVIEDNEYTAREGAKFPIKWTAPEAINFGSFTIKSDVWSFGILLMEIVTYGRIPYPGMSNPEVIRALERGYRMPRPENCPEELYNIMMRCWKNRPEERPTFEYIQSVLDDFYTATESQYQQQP
Sequence of FGFR3 (P22607 whole entry, looked up): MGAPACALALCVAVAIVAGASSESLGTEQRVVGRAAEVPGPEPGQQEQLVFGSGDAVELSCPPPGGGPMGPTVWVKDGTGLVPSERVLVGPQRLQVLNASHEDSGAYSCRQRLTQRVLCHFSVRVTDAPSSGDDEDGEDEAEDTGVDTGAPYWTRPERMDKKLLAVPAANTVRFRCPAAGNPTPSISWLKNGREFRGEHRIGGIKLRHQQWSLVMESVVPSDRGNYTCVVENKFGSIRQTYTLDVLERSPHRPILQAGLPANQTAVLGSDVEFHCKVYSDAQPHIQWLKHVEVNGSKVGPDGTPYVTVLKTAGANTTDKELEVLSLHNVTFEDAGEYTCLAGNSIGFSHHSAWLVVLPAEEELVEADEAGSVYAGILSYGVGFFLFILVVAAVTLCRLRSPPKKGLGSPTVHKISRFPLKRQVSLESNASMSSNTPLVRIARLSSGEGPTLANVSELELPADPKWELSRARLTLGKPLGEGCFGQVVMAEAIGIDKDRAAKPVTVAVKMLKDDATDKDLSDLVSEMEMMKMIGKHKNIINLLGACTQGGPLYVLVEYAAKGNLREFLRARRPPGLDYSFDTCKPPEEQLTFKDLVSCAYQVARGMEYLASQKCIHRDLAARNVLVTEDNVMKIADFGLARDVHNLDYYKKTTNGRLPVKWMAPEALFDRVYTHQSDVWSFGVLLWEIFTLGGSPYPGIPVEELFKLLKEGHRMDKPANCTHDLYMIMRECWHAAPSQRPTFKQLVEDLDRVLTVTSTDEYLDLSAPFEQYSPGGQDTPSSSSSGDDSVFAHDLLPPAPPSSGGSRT
Sequence of EPHB1 (P54762 whole entry, looked up): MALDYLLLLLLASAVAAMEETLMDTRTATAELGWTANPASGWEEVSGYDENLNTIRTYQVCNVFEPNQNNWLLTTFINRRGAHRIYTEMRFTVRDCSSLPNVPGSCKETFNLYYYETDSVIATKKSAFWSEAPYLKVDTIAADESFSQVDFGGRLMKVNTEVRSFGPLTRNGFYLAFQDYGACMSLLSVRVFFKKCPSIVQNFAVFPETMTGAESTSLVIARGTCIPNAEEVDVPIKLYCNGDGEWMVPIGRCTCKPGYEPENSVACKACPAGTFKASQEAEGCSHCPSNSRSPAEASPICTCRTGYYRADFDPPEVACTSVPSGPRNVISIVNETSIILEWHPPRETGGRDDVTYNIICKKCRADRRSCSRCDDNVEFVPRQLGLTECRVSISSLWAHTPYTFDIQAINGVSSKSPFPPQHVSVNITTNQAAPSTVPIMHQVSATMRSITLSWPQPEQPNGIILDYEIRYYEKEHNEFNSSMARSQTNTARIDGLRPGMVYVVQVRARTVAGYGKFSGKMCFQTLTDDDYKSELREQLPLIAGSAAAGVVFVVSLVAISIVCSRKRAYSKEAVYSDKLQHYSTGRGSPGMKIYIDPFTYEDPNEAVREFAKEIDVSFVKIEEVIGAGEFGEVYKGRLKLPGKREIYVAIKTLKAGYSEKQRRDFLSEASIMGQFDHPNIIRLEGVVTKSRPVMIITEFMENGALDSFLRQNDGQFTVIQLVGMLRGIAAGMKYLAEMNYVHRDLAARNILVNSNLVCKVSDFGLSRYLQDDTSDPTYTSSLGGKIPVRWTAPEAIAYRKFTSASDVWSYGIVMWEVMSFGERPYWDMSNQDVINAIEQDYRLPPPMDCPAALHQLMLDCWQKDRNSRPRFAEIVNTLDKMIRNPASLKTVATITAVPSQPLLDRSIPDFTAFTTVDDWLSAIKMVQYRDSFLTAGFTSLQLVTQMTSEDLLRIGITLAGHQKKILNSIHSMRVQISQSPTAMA
Sequence of MERTK (Q12866 whole entry, looked up, the tested form may be a part): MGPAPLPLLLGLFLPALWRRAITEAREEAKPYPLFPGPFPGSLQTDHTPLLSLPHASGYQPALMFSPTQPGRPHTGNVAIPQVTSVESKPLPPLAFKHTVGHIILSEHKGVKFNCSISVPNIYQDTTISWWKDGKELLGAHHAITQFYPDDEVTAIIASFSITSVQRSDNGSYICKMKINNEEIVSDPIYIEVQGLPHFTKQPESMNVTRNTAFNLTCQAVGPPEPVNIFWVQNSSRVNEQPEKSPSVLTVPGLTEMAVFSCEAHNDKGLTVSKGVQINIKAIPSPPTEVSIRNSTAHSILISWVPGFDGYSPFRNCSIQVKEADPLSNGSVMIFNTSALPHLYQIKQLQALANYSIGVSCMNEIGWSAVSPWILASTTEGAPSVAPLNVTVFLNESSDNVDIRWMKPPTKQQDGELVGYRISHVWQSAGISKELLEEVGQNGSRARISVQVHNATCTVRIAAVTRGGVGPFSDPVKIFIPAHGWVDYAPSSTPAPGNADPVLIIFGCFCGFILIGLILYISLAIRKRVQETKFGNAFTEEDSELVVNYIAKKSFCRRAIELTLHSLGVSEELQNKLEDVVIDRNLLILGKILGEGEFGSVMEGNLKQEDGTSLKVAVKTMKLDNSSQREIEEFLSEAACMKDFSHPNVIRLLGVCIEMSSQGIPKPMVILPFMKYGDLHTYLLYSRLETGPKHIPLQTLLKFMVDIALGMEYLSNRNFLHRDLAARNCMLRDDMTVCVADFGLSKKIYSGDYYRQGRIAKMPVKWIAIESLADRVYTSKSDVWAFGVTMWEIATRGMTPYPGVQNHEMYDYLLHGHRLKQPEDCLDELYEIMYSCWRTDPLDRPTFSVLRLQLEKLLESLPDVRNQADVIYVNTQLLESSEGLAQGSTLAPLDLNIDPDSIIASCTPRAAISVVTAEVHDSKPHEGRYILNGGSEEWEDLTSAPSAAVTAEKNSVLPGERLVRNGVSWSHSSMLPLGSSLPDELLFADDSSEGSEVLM
Sequence of EPHB2 (P29323 whole entry, looked up): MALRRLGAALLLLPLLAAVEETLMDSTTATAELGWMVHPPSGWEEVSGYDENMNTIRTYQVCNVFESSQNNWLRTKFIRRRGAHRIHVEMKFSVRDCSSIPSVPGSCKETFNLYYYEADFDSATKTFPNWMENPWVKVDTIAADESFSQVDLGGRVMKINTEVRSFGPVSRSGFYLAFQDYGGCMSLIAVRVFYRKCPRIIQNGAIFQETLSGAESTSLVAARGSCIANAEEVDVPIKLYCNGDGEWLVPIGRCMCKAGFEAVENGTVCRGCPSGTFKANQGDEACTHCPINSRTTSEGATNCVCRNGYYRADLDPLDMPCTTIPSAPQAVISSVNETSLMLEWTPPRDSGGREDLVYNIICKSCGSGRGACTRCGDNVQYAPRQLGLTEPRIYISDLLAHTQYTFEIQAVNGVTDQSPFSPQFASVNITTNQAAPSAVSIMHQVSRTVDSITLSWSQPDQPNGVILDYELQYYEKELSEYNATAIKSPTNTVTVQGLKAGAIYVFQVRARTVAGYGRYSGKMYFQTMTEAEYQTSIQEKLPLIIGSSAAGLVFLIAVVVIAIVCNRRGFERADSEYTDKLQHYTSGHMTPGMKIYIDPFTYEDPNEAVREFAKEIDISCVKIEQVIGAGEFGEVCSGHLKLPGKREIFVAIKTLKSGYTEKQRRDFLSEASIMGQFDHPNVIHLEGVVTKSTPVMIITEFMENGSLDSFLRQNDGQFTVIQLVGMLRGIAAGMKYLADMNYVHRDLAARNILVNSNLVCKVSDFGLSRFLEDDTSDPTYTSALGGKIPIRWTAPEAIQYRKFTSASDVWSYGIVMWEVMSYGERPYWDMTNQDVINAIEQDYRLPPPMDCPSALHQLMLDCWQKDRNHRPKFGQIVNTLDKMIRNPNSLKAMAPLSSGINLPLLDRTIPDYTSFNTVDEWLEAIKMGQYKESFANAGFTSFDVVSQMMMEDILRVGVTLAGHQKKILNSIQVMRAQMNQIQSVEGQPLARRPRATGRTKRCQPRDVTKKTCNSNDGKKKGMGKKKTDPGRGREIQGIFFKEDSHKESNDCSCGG
Sequence of Fyn (P06241 whole entry, looked up): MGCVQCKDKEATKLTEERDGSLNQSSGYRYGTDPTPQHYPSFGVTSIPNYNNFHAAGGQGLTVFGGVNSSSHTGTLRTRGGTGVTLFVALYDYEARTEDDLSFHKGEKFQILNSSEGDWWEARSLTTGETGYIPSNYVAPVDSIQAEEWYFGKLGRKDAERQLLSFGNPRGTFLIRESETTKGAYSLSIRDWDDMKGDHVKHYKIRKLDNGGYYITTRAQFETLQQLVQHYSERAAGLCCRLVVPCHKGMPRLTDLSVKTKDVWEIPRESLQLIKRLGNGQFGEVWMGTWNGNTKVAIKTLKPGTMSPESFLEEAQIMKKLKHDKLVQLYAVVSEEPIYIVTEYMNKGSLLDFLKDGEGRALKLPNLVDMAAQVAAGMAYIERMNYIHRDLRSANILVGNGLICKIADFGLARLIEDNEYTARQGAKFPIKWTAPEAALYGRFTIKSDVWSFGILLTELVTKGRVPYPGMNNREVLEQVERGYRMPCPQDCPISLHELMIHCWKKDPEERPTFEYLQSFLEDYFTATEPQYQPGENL

- SH2 binding enrichment [1]: 0.364
- SH2 binding enrichment [2]: 0.381
- SH2 binding enrichment [3]: 0.6
Sequence: HAVVDYMRRQK [ATM_Y1915_L1910H]
- phosphorylation enrichment [4]: 1
- phosphorylation enrichment [5]: 1.16
- phosphorylation enrichment [6]: 1.14
- phosphorylation enrichment [7]: 0.892
- phosphorylation enrichment [8]: 0.634
- phosphorylation enrichment [9]: 1.03
- phosphorylation enrichment [10]: 0.595
- phosphorylation enrichment [11]: 0.535
- phosphorylation enrichment [12]: 0.799
- phosphorylation enrichment [13]: 0.701
- phosphorylation enrichment [14]: 0.539
- phosphorylation enrichment [15]: 0.694
- phosphorylation enrichment [16]: 0.654

- SH2 binding enrichment [1]: 0.945
- SH2 binding enrichment [2]: 0.701
- SH2 binding enrichment [3]: 1.2
Sequence: NPQKSYFIRLF [WAS_Y83_YF]
- phosphorylation enrichment [4]: 0.754
- phosphorylation enrichment [5]: 1.09
- phosphorylation enrichment [6]: 1.4
- phosphorylation enrichment [7]: 1.21
- phosphorylation enrichment [8]: 0.453
- phosphorylation enrichment [9]: 0.501
- phosphorylation enrichment [10]: 0.692
- phosphorylation enrichment [11]: 0.583
- phosphorylation enrichment [12]: 0.579
- phosphorylation enrichment [13]: 0.58
- phosphorylation enrichment [14]: 0.464
- phosphorylation enrichment [15]: 0.5
- phosphorylation enrichment [16]: 0.457

- SH2 binding enrichment [1]: 0.604
- SH2 binding enrichment [2]: 0.451
- SH2 binding enrichment [3]: 0.881
Sequence: VDLSKYITTIA [FAS_Y232]
- phosphorylation enrichment [4]: 0.452
- phosphorylation enrichment [5]: 0.657
- phosphorylation enrichment [6]: 0.815
- phosphorylation enrichment [7]: 0.67
- phosphorylation enrichment [8]: 0.348
- phosphorylation enrichment [9]: 0.341
- phosphorylation enrichment [10]: 0.513
- phosphorylation enrichment [11]: 0.394
- phosphorylation enrichment [12]: 0.363
- phosphorylation enrichment [13]: 0.378
- phosphorylation enrichment [14]: 0.424
- phosphorylation enrichment [15]: 0.407
- phosphorylation enrichment [16]: 0.426

- SH2 binding enrichment [1]: 0.652
- SH2 binding enrichment [2]: 0.462
- SH2 binding enrichment [3]: 0.9
Sequence: EHLNRYISDTF [TTLL10_Y446]
- phosphorylation enrichment [4]: 0.567
- phosphorylation enrichment [5]: 0.737
- phosphorylation enrichment [6]: 0.641
- phosphorylation enrichment [7]: 0.535
- phosphorylation enrichment [8]: 0.434
- phosphorylation enrichment [9]: 0.473
- phosphorylation enrichment [10]: 0.655
- phosphorylation enrichment [11]: 0.434
- phosphorylation enrichment [12]: 0.428
- phosphorylation enrichment [13]: 0.44
- phosphorylation enrichment [14]: 0.42
- phosphorylation enrichment [15]: 0.51
- phosphorylation enrichment [16]: 0.393

- SH2 binding enrichment [1]: 0.558
- SH2 binding enrichment [2]: 0.397
- SH2 binding enrichment [3]: 0.764
Sequence: EPFELYCEMGS [CBL_Y371_Q367P_YF]
- phosphorylation enrichment [4]: 1.22
- phosphorylation enrichment [5]: 1.68
- phosphorylation enrichment [6]: 1.55
- phosphorylation enrichment [7]: 1.38
- phosphorylation enrichment [8]: 1.26
- phosphorylation enrichment [9]: 2.31
- phosphorylation enrichment [10]: 0.848
- phosphorylation enrichment [11]: 0.749
- phosphorylation enrichment [12]: 0.897
- phosphorylation enrichment [13]: 2.64
- phosphorylation enrichment [14]: 1.21
- phosphorylation enrichment [15]: 1.51
- phosphorylation enrichment [16]: 1.16

- SH2 binding enrichment [1]: 0.626
- SH2 binding enrichment [2]: 0.439
- SH2 binding enrichment [3]: 0.699
Sequence: MIRSTYALGGL [CPS1_Y590_A589T]
- phosphorylation enrichment [4]: 0.486
- phosphorylation enrichment [5]: 0.63
- phosphorylation enrichment [6]: 0.693
- phosphorylation enrichment [7]: 0.73
- phosphorylation enrichment [8]: 0.466
- phosphorylation enrichment [9]: 0.521
- phosphorylation enrichment [10]: 0.498
- phosphorylation enrichment [11]: 0.489
- phosphorylation enrichment [12]: 0.774
- phosphorylation enrichment [13]: 0.4
- phosphorylation enrichment [14]: 0.546
- phosphorylation enrichment [15]: 0.487
- phosphorylation enrichment [16]: 0.488

- SH2 binding enrichment [1]: 1.14
- SH2 binding enrichment [2]: 0.734
- SH2 binding enrichment [3]: 1.17
Sequence: QRPYVYYYSYL [PTEN_Y176_R173P]
- phosphorylation enrichment [4]: 7.23
- phosphorylation enrichment [5]: 2.26
- phosphorylation enrichment [6]: 2.35
- phosphorylation enrichment [7]: 6.45
- phosphorylation enrichment [8]: 3.38
- phosphorylation enrichment [9]: 4.08
- phosphorylation enrichment [10]: 1.59
- phosphorylation enrichment [11]: 2
- phosphorylation enrichment [12]: 9.79
- phosphorylation enrichment [13]: 4.84
- phosphorylation enrichment [14]: 5.34
- phosphorylation enrichment [15]: 3.7
- phosphorylation enrichment [16]: 8.05

- SH2 binding enrichment [1]: 0.636
- SH2 binding enrichment [2]: 0.342
- SH2 binding enrichment [3]: 0.642
Sequence: KLMTEYKRRKQ [ARFGEF3_Y2029_K2031R]
- phosphorylation enrichment [4]: 0.646
- phosphorylation enrichment [5]: 0.661
- phosphorylation enrichment [6]: 0.572
- phosphorylation enrichment [7]: 0.458
- phosphorylation enrichment [8]: 0.544
- phosphorylation enrichment [9]: 0.496
- phosphorylation enrichment [10]: 0.503
- phosphorylation enrichment [11]: 0.573
- phosphorylation enrichment [12]: 0.677
- phosphorylation enrichment [13]: 0.477
- phosphorylation enrichment [14]: 0.526
- phosphorylation enrichment [15]: 0.521
- phosphorylation enrichment [16]: 0.536

- SH2 binding enrichment [1]: 0.882
- SH2 binding enrichment [2]: 0.655
- SH2 binding enrichment [3]: 0.707
Sequence: QAINEYEKWLE [MAP9_Y603]
- phosphorylation enrichment [4]: 1.39
- phosphorylation enrichment [5]: 2.34
- phosphorylation enrichment [6]: 1.81
- phosphorylation enrichment [7]: 1.73
- phosphorylation enrichment [8]: 1
- phosphorylation enrichment [9]: 1.03
- phosphorylation enrichment [10]: 1.06
- phosphorylation enrichment [11]: 0.961
- phosphorylation enrichment [12]: 1.12
- phosphorylation enrichment [13]: 1.67
- phosphorylation enrichment [14]: 0.631
- phosphorylation enrichment [15]: 1.2
- phosphorylation enrichment [16]: 0.663

- SH2 binding enrichment [1]: 0.557
- SH2 binding enrichment [2]: 0.349
- SH2 binding enrichment [3]: 0.581
Sequence: SKNSKYNAGST [PSEN1_Y315_E318G]
- phosphorylation enrichment [4]: 0.439
- phosphorylation enrichment [5]: 0.535
- phosphorylation enrichment [6]: 0.776
- phosphorylation enrichment [7]: 0.608
- phosphorylation enrichment [8]: 0.59
- phosphorylation enrichment [9]: 0.654
- phosphorylation enrichment [10]: 0.677
- phosphorylation enrichment [11]: 0.436
- phosphorylation enrichment [12]: 0.358
- phosphorylation enrichment [13]: 0.307
- phosphorylation enrichment [14]: 0.737
- phosphorylation enrichment [15]: 0.442
- phosphorylation enrichment [16]: 0.536

- SH2 binding enrichment [1]: 0.986
- SH2 binding enrichment [2]: 1.39
- SH2 binding enrichment [3]: 0.747
Sequence: YLAAIYPTVGQ [NF1_Y2508_T2507I]
- phosphorylation enrichment [4]: 0.88
- phosphorylation enrichment [5]: 0.94
- phosphorylation enrichment [6]: 0.89
- phosphorylation enrichment [7]: 0.671
- phosphorylation enrichment [8]: 0.513
- phosphorylation enrichment [9]: 0.514
- phosphorylation enrichment [10]: 0.597
- phosphorylation enrichment [11]: 0.58
- phosphorylation enrichment [12]: 1.16
- phosphorylation enrichment [13]: 0.511
- phosphorylation enrichment [14]: 0.528
- phosphorylation enrichment [15]: 0.57
- phosphorylation enrichment [16]: 1.37

- SH2 binding enrichment [1]: 0.391
- SH2 binding enrichment [2]: 0.663
- SH2 binding enrichment [3]: 0.834
Sequence: PEVRRHVLPLN [RPE65_Y368_Y368H]
- phosphorylation enrichment [4]: 1.03
- phosphorylation enrichment [5]: 1.35
- phosphorylation enrichment [6]: 1.61
- phosphorylation enrichment [7]: 1.57
- phosphorylation enrichment [8]: 0.587
- phosphorylation enrichment [9]: 0.886
- phosphorylation enrichment [10]: 1.73
- phosphorylation enrichment [11]: 0.843
- phosphorylation enrichment [12]: 0.707
- phosphorylation enrichment [13]: 0.849
- phosphorylation enrichment [14]: 0.661
- phosphorylation enrichment [15]: 0.894
- phosphorylation enrichment [16]: 0.669

- SH2 binding enrichment [1]: 0.731
- SH2 binding enrichment [2]: 0.724
- SH2 binding enrichment [3]: 0.971
Sequence: KEKLCYVAPDF [ACTA1_Y220_L223P]
- phosphorylation enrichment [4]: 0.603
- phosphorylation enrichment [5]: 1.4
- phosphorylation enrichment [6]: 0.836
- phosphorylation enrichment [7]: 1.18
- phosphorylation enrichment [8]: 0.424
- phosphorylation enrichment [9]: 0.637
- phosphorylation enrichment [10]: 5.43
- phosphorylation enrichment [11]: 0.419
- phosphorylation enrichment [12]: 0.635
- phosphorylation enrichment [13]: 0.558
- phosphorylation enrichment [14]: 0.581
- phosphorylation enrichment [15]: 0.489
- phosphorylation enrichment [16]: 0.656

- SH2 binding enrichment [1]: 0.7
- SH2 binding enrichment [2]: 0.648
- SH2 binding enrichment [3]: 0.872
Sequence: VCDSNYSASRW [LRP5_Y1552_D1551N]
- phosphorylation enrichment [4]: 0.626
- phosphorylation enrichment [5]: 0.719
- phosphorylation enrichment [6]: 0.864
- phosphorylation enrichment [7]: 0.618
- phosphorylation enrichment [8]: 0.483
- phosphorylation enrichment [9]: 1.85
- phosphorylation enrichment [10]: 0.507
- phosphorylation enrichment [11]: 0.513
- phosphorylation enrichment [12]: 0.509
- phosphorylation enrichment [13]: 1.62
- phosphorylation enrichment [14]: 0.396
- phosphorylation enrichment [15]: 0.508
- phosphorylation enrichment [16]: 0.426

- SH2 binding enrichment [1]: 0.529
- SH2 binding enrichment [2]: 0.604
- SH2 binding enrichment [3]: 0.797
Sequence: IQVDAYFSPIH [ADSL_Y432]
- phosphorylation enrichment [4]: 0.772
- phosphorylation enrichment [5]: 1.17
- phosphorylation enrichment [6]: 1.33
- phosphorylation enrichment [7]: 2.15
- phosphorylation enrichment [8]: 0.605
- phosphorylation enrichment [9]: 0.75
- phosphorylation enrichment [10]: 0.936
- phosphorylation enrichment [11]: 0.652
- phosphorylation enrichment [12]: 0.638
- phosphorylation enrichment [13]: 0.738
- phosphorylation enrichment [14]: 0.484
- phosphorylation enrichment [15]: 0.684
- phosphorylation enrichment [16]: 0.551

- SH2 binding enrichment [1]: 0.684
- SH2 binding enrichment [2]: 0.541
- SH2 binding enrichment [3]: 0.79
Sequence: TLQSMFGCDVG [HLA-B_Y123_Y123F]
- phosphorylation enrichment [4]: 0.7
- phosphorylation enrichment [5]: 0.989
- phosphorylation enrichment [6]: 1.09
- phosphorylation enrichment [7]: 0.852
- phosphorylation enrichment [8]: 0.648
- phosphorylation enrichment [9]: 0.85
- phosphorylation enrichment [10]: 0.637
- phosphorylation enrichment [11]: 0.523
- phosphorylation enrichment [12]: 0.515
- phosphorylation enrichment [13]: 0.657
- phosphorylation enrichment [14]: 0.44
- phosphorylation enrichment [15]: 0.489
- phosphorylation enrichment [16]: 0.511
